Results reported in US20240124563A1 (NANJING ZAIMING PHARMACEUTICAL, published 2024).

T1: human MSLN-R3-3 polypeptide (purchased from GL Biochem, Cat. No. 406676) (human)
T1 construct: Printed as Val539-Val588; also called hMSLN-R3-3
T1 peptide: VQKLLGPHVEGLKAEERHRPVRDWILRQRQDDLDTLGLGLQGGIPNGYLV


Assays:
[1] = target: T2, human MSLN-R3-his protein (human, UniProt Q13421 487-598); test: ELISA, coated antigen, 1 nM antibody
T2 construct: also called hMSLN-R3-his; not shown: histidine tag

[2] = target: T2, human MSLN-R3-his protein; test: ELISA, coated antigen, 10 nM antibody
[3] = target: T3, human MSLN-R2-his protein (human, UniProt Q13421 391-486); test: ELISA, coated antigen, 20 nM antibody
T3 construct: also called hMSLN-R2-his; not shown: histidine tag

[4] = target: T2, human MSLN-R3-his protein; test: ELISA, coated antigen, 20 nM antibody
[5] = target: T2, human MSLN-R3-his protein; test: ELISA, coated antigen, 0.1 nM antibody
[6] = target: T2, human MSLN-R3-his protein; test: ELISA, coated antigen, 100 nM antibody
[7] = target: T3, human MSLN-R2-his protein; test: ELISA, coated antigen, 0.2 nM antibody
[8] = target: T2, human MSLN-R3-his protein; test: ELISA, coated antigen, 0.2 nM antibody
[9] = target: T2, human MSLN-R3-his protein; test: ELISA, coated antigen, 0.01 nM antibody
[10] = target: T2, human MSLN-R3-his protein; test: ELISA, coated antigen, 0.001 nM antibody
[11] = target: T2, human MSLN-R3-his protein; test: ELISA, coated antigen, 0.0001 nM antibody
[12] = target: T2, human MSLN-R3-his protein; test: ELISA, coated antigen, 0 nM antibody (blank)
[13] = target: T4, human MSLN-R2-his protein (human, UniProt Q13421 391-486); test: ELISA, antibody 1 nM
T4 construct: MSLN-R2 = Ser391-Asn486; also called hMSLN-R2-his; not shown: histidine tag

[14] = target: T5, human MSLN-R3-his protein (human, UniProt Q13421 487-598); test: ELISA, antibody 1 nM
T5 construct: MSLN-R3 = Met487-Ser598; also called hMSLN-R3-his; not shown: histidine tag

[15] = target: T4, human MSLN-R2-his protein; test: ELISA, antibody 1 nM; remark: listed apart in the source
[16] = target: T5, human MSLN-R3-his protein; test: ELISA, antibody 1 nM; remark: listed apart in the source
[17] = target: T1, human MSLN-R3-3 polypeptide (purchased …); test: ELISA, antibody 1 nM
[18] = target: T4, human MSLN-R2-his protein; test: ELISA, antibody 10 nM
[19] = target: T5, human MSLN-R3-his protein; test: ELISA, antibody 10 nM
[20] = target: T4, human MSLN-R2-his protein; test: ELISA, antibody 0.1 nM
[21] = target: T4, human MSLN-R2-his protein; test: ELISA, antibody 100 nM
[22] = target: T5, human MSLN-R3-his protein; test: ELISA, antibody 0.1 nM
[23] = target: T5, human MSLN-R3-his protein; test: ELISA, antibody 100 nM
[24] = target: T4, human MSLN-R2-his protein; test: ELISA, antibody 0.01 nM
[25] = target: T5, human MSLN-R3-his protein; test: ELISA, antibody 0.01 nM
[26] = target: T4, human MSLN-R2-his protein; test: ELISA, antibody 0.001 nM
[27] = target: T5, human MSLN-R3-his protein; test: ELISA, antibody 0.001 nM
[28] = target: T4, human MSLN-R2-his protein; test: ELISA, antibody 0.0001 nM
[29] = target: T5, human MSLN-R3-his protein; test: ELISA, antibody 0.0001 nM
[30] = target: T4, human MSLN-R2-his protein; test: ELISA, antibody 0 nM (blank)
[31] = target: T5, human MSLN-R3-his protein; test: ELISA, antibody 0 nM (blank)
[32] = target: T6, chimeric human MSLN-R3 / chicken MSLN-R1-2 protein on HEK293T cells (clone A5) (chicken; human); test: FACS, HEK293T-hR3/chickR1-2-A5 cells, antibody 20 nM
T6 construct: range 327-514; Human R1-R2 replaced by chicken R1-R2; also called HEK293T-chickR1-2/hR3-A5; HEK293T-hR3/chickR1-2-A5

[33] = target: T6, chimeric human MSLN-R3 / chicken …; test: FACS, HEK293T-hR3/chickR1-2-A5 cells, antibody 0.2 nM

T6 sequence (Q13421 495-614, change not shown): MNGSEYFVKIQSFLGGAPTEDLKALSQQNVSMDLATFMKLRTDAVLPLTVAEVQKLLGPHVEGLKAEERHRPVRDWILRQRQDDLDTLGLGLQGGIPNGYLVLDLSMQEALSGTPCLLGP

| OD450 nm [13] | OD450 nm [14] | OD450 nm [15] | OD450 nm [16] | OD450 nm [17] | OD450 nm [18] | OD450 nm [19] | OD450 nm [20] | OD450 nm [21] | OD450 nm [22] | OD450 nm [23] | OD450 nm [24] | OD450 nm [25] | OD450 nm [26] | OD450 nm [27] | OD450 nm [28] | OD450 nm [29] | OD450 nm [30] | OD450 nm [31] | Binder | other results |
| --- | --- | --- | --- | --- | --- | --- | --- | --- | --- | --- | --- | --- | --- | --- | --- | --- | --- | --- | --- | --- |
| – | – | – | – | – | – | – | – | – | – | – | – | – | – | – | – | – | – | – | Tab106 (YP218, hIgG1) (antibody, V domains shown, also called YP218 human IgG1 antibody) VH: QQQLEESGGGLVKPEGSLTLTCKASGFDLGFYFYACWVRQAPGKGLEWIACIYTAGSGSTYYASWAKGRFTISKASSTTVTLQMTSLAAADTATYFCARSTANTRSTYYLNLWGPGTLVTVSS VL: DVVMTQTPASVSEPVGGTVTIKCQASQRISSYLSWYQQKPGQRPKLLIFGASTLASGVPSRFKGSGSGTEYTLTISDLECADAATYYCQSYAYFDSNNWHAFGGGTEVVVRT [Tab106 (YP218, hIgG1), listing 1 of 2 here] | OD450 nm [1]: 0.22 OD450 nm; OD450 nm [2]: 1.04 OD450 nm; OD450 nm [3]: 1.44 OD450 nm; OD450 nm [4]: 1.89 OD450 nm; OD450 nm [5]: 0.07 OD450 nm; OD450 nm [6]: 1.81 OD450 nm; OD450 nm [7]: 0.13 OD450 nm; OD450 nm [8]: 0.87 OD450 nm; OD450 nm [9]: 0.05 OD450 nm; OD450 nm [10]: 0.05 OD450 nm; OD450 nm [11]: 0.05 OD450 nm; OD450 nm [12]: 0.05 OD450 nm |
| 0.05 | 0.62 | 0.05 | 0.62 | 0.98 | 0.11 | 1.75 | 0.05 | 0.7 | 0.12 | 2.29 | 0.04 | 0.06 | 0.04 | 0.05 | 0.04 | 0.05 | 0.05 | 0.05 | Tab106 (YP218, hIgG1) (antibody, V domains shown, also called YP218 human IgG1 antibody; anti-human MSLN-R3 antibody (Tab106)) VH: QQQLEESGGGLVKPEGSLTLTCKASGFDLGFYFYACWVRQAPGKGLEWIACIYTAGSGSTYYASWAKGRFTISKASSTTVTLQMTSLAAADTATYFCARSTANTRSTYYLNLWGPGTLVTVSS VL: DVVMTQTPASVSEPVGGTVTIKCQASQRISSYLSWYQQKPGQRPKLLIFGASTLASGVPSRFKGSGSGTEYTLTISDLECADAATYYCQSYAYFDSNNWHAFGGGTEVVVRT | – |
| – | – | – | – | – | – | – | – | – | – | – | – | – | – | – | – | – | – | – | Tab106 (YP218, hIgG1) (antibody, V domains shown, also called YP218 human IgG1 antibody) VH: QQQLEESGGGLVKPEGSLTLTCKASGFDLGFYFYACWVRQAPGKGLEWIACIYTAGSGSTYYASWAKGRFTISKASSTTVTLQMTSLAAADTATYFCARSTANTRSTYYLNLWGPGTLVTVSS VL: DVVMTQTPASVSEPVGGTVTIKCQASQRISSYLSWYQQKPGQRPKLLIFGASTLASGVPSRFKGSGSGTEYTLTISDLECADAATYYCQSYAYFDSNNWHAFGGGTEVVVRT [Tab106 (YP218, hIgG1), listing 2 of 2 here] | MFI [32]: 17900; MFI [33]: 767 |
| 1.49 | 0.05 | 1.49 | 0.05 | 0.09 | 2.01 | 0.05 | 0.2 | 2.5 | 0.05 | 0.05 | 0.07 | 0.05 | 0.05 | 0.05 | 0.05 | 0.05 | 0.05 | 0.05 | Tab020 (YP223, rabbitIgG1) (antibody, V domains shown, also called YP223 rabbit IgG1 antibody; rabbit anti-human MSLN antibody (Tab020)) VH: QEQLEESGGDLVQPEGSLTLTCKASGLDFSSSYWICWVRQAPGKGLEWIGCRHTFTANTWSASWVNGRFTISRSTSLGTVDLKMTSLTAADTATYFCARDESNNDGWDFKLWGPGTLVTVSS VL: AYDMTQTPASVSAAVGGTVTIKCQASQSISNYLAWYQQKPGQPPKLLIYQASTLAPGVSSRFKGSGSGTEFTLTISGVECADAATYYCQQGYTSSNVENVFGGGTGVVVGD | – |
